Assay results published in patent WO2011147762A2.

How the values were obtained:
[1] = biological target: ED-B fibronectin antigen protein (recombinant), bound to CNBr activated sepharose 4B (UniProt P02751); experiment: ED-B sepharose column, % of total radioactivity bound; Study A; maltose 50 mg/mL; day 7
[2] = biological target: ED-B fibronectin antigen protein (recombinant), bound to CNBr activated sepharose 4B (UniProt P02751); experiment: ED-B sepharose column, % of total radioactivity bound; Study A; maltose 10 mg/mL; day 3
[3] = biological target: ED-B fibronectin antigen protein (recombinant), bound to CNBr activated sepharose 4B (UniProt P02751); experiment: ED-B sepharose column, % of total radioactivity bound; Study A; sodium thiosulfate 5 mg/mL; day 7
[4] = biological target: ED-B fibronectin antigen protein (recombinant), bound to CNBr activated sepharose 4B (UniProt P02751); experiment: ED-B sepharose column, % of total radioactivity bound; Study A; maltose 10 mg/mL; day 5
[5] = biological target: ED-B fibronectin antigen protein (recombinant), bound to CNBr activated sepharose 4B (UniProt P02751); experiment: ED-B sepharose column, % of total radioactivity bound; Study A; sodium thiosulfate 10 mg/mL; day 0
[6] = biological target: ED-B fibronectin antigen protein (recombinant), bound to CNBr activated sepharose 4B (UniProt P02751); experiment: ED-B sepharose column, % of total radioactivity bound; Study A; inositol 25 mg/mL; day 1
[7] = biological target: ED-B fibronectin antigen protein (recombinant), bound to CNBr activated sepharose 4B (UniProt P02751); experiment: ED-B sepharose column, % of total radioactivity bound; Study A; inositol 5 mg/mL; day 7
[8] = biological target: ED-B fibronectin antigen protein (recombinant), bound to CNBr activated sepharose 4B (UniProt P02751); experiment: ED-B sepharose column, % of total radioactivity bound; Study B3; no-excipient control (PBS); day 3
[9] = biological target: ED-B fibronectin antigen protein (recombinant), bound to CNBr activated sepharose 4B (UniProt P02751); experiment: ED-B sepharose column, % of total radioactivity bound; Study A; methionine 5 mg/mL; day 7
[10] = biological target: ED-B fibronectin antigen protein (recombinant), bound to CNBr activated sepharose 4B (UniProt P02751); experiment: ED-B sepharose column, % of total radioactivity bound; Study B3; no-excipient control (PBS); day 5
[11] = biological target: ED-B fibronectin antigen protein (recombinant), bound to CNBr activated sepharose 4B (UniProt P02751); experiment: ED-B sepharose column, % of total radioactivity bound; Study A; maltose 50 mg/mL; day 5
[12] = biological target: ED-B fibronectin antigen protein (recombinant), bound to CNBr activated sepharose 4B (UniProt P02751); experiment: ED-B sepharose column, % of total radioactivity bound; Study A; sodium thiosulfate 5 mg/mL; day 5
[13] = biological target: ED-B fibronectin antigen protein (recombinant), bound to CNBr activated sepharose 4B (UniProt P02751); experiment: ED-B sepharose column, % of total radioactivity bound; Study B3; thioglycerol 10 mg/mL; day 3
[14] = biological target: ED-B fibronectin antigen protein (recombinant), bound to CNBr activated sepharose 4B (UniProt P02751); experiment: ED-B sepharose column, % of total radioactivity bound; Study A; no-excipient control (saline); day 7
[15] = biological target: ED-B fibronectin antigen protein (recombinant), bound to CNBr activated sepharose 4B (UniProt P02751); experiment: ED-B sepharose column, % of total radioactivity bound; Study A; inositol 25 mg/mL; day 7
[16] = biological target: ED-B fibronectin antigen protein (recombinant), bound to CNBr activated sepharose 4B (UniProt P02751); experiment: ED-B sepharose column, % of total radioactivity bound; Study A; sodium thiosulfate 10 mg/mL; day 5
[17] = biological target: ED-B fibronectin antigen protein (recombinant), bound to CNBr activated sepharose 4B (UniProt P02751); experiment: ED-B sepharose column, % of total radioactivity bound; Study A; sodium thiosulfate 10 mg/mL; day 7
[18] = biological target: ED-B fibronectin antigen protein (recombinant), bound to CNBr activated sepharose 4B (UniProt P02751); experiment: ED-B sepharose column, % of total radioactivity bound; Study A; methionine 5 mg/mL; day 3
[19] = biological target: ED-B fibronectin antigen protein (recombinant), bound to CNBr activated sepharose 4B (UniProt P02751); experiment: ED-B sepharose column, % of total radioactivity bound; Study A; inositol 10 mg/mL; day 5
[20] = biological target: ED-B fibronectin antigen protein (recombinant), bound to CNBr activated sepharose 4B (UniProt P02751); experiment: ED-B sepharose column, % of total radioactivity bound; Study A; maltose 5 mg/mL; day 7
[21] = biological target: ED-B fibronectin antigen protein (recombinant), bound to CNBr activated sepharose 4B (UniProt P02751); experiment: ED-B sepharose column, % of total radioactivity bound; Study A; maltose 25 mg/mL; day 1
[22] = biological target: ED-B fibronectin antigen protein (recombinant), bound to CNBr activated sepharose 4B (UniProt P02751); experiment: ED-B sepharose column, % of total radioactivity bound; Study A; sodium thiosulfate 50 mg/mL; day 5
[23] = biological target: ED-B fibronectin antigen protein (recombinant), bound to CNBr activated sepharose 4B (UniProt P02751); experiment: ED-B sepharose column, % of total radioactivity bound; Study B3; human serum albumin 10 mg/mL; day 3
[24] = biological target: ED-B fibronectin antigen protein (recombinant), bound to CNBr activated sepharose 4B (UniProt P02751); experiment: ED-B sepharose column, % of total radioactivity bound; Study B3; thioglycerol 10 mg/mL; day 5
[25] = biological target: ED-B fibronectin antigen protein (recombinant), bound to CNBr activated sepharose 4B (UniProt P02751); experiment: ED-B sepharose column, % of total radioactivity bound; Study A; inositol 5 mg/mL; day 5
[26] = biological target: ED-B fibronectin antigen protein (recombinant), bound to CNBr activated sepharose 4B (UniProt P02751); experiment: ED-B sepharose column, % of total radioactivity bound; Study A; methionine 25 mg/mL; day 1
[27] = biological target: ED-B fibronectin antigen protein (recombinant), bound to CNBr activated sepharose 4B (UniProt P02751); experiment: ED-B sepharose column, % of total radioactivity bound; Study B3; human serum albumin 10 mg/mL; day 1
[28] = biological target: ED-B fibronectin antigen protein (recombinant), bound to CNBr activated sepharose 4B (UniProt P02751); experiment: ED-B sepharose column, % of total radioactivity bound; Study B3; human serum albumin 10 mg/mL; day 5

131I L19-SIP (radioiodinated L19 SIP homodimer), sequence (chain): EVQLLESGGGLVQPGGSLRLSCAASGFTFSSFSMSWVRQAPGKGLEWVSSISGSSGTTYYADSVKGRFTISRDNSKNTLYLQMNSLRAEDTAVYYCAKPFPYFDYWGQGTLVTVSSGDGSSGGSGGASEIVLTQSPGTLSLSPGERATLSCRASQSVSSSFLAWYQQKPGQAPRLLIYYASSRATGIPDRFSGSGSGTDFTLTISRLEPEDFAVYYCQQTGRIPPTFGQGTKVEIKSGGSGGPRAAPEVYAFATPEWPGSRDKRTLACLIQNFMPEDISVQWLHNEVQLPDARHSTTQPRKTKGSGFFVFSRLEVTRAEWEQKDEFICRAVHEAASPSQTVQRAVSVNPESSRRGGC
131I L19-SIP (radioiodinated L19 SIP homodimer), sequence (chain): as above
UniProt P02751, sequence (P02751 1266-1356 limits assumed): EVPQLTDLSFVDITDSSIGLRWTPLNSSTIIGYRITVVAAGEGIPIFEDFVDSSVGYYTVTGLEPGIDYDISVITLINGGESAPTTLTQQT

131I L19-SIP (radioiodinated L19 SIP homodimer)
Immunoreactivity (%) [1]: 50.7%
Immunoreactivity (%) [2]: 65.2%
Immunoreactivity (%) [3]: 70%
Immunoreactivity (%) [4]: 57.2%
Immunoreactivity (%) [5]: 96.2%
Immunoreactivity (%) [6]: 88.7%
Immunoreactivity (%) [7]: 56.2%
Immunoreactivity (IR) (%) [8]: 68.3%
Immunoreactivity (%) [9]: 61%
Immunoreactivity (IR) (%) [10]: 56.4%
Immunoreactivity (%) [11]: 55.6%
Immunoreactivity (%) [12]: 79.4%
Immunoreactivity (IR) (%) [13]: 59.5%
Immunoreactivity (%) [14]: 43.7%
Immunoreactivity (%) [15]: 62.8%
Immunoreactivity (%) [16]: 81.3%
Immunoreactivity (%) [17]: 78%
Immunoreactivity (%) [18]: 72.9%
Immunoreactivity (%) [19]: 58.9%
Immunoreactivity (%) [20]: 50%
Immunoreactivity (%) [21]: 86.4%
Immunoreactivity (%) [22]: 91.5%
Immunoreactivity (IR) (%) [23]: 60.6%
Immunoreactivity (IR) (%) [24]: 46.8%
Immunoreactivity (%) [25]: 56.2%
Immunoreactivity (%) [26]: 89.6%
Immunoreactivity (IR) (%) [27]: 78%
Immunoreactivity (IR) (%) [28]: 53%
